Values of other authors, collected in US7759315B2, “Treatment of inflammatory conditions of the intestine” (CSL Behring AG, priority 2005, dated 2010).
Non-standard residues stand in square brackets, D forms with d. No end group written: not given here. Orn = NCCC[C@H](N)C(=O)O; Aib = CC(C)(N)C(=O)O

Target: T1, LCAT (Homo sapiens, UniProt P04180)
T1 sequence (P04180 25-440): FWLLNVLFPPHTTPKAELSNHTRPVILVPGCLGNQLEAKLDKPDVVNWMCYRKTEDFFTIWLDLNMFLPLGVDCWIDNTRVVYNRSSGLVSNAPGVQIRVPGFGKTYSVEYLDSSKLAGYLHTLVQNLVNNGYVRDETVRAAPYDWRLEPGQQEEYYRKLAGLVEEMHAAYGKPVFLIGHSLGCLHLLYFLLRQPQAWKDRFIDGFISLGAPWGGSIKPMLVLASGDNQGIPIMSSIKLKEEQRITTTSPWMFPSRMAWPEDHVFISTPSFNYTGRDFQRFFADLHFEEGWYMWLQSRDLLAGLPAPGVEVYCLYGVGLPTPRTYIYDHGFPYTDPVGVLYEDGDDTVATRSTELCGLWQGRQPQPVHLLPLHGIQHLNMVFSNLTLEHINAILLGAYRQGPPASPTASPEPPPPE

ACTIVITY (%) LCAT [%] | Substance
66 | AVLDLFRELLEELKQKLK* (not fully specified (N-terminus, C-terminus); printed as AVLDLFRELLEELKQKLK*) [Peptide 203]
39 | AVLDLFRELLNELLEALKQKLK [Peptide 29]
49 | AVLELFENLLERLLDALQKKLK [Peptide 153]
12 | DVLDLFRELLEELKQKLK* (not fully specified (N-terminus, C-terminus); printed as DVLDLFRELLEELKQKLK*) [Peptide 221]
3 | DWFKAFYDKFFEKFKEFF [Peptide 247]
8 | DWFKAFYDKVFEKFKEFF [Peptide 241]
7 | GIKKFLGSIWKFIKAFVG [Peptide 242, 18L peptide (Degreat et al., 1990), reference compound]
80 | GVLDLFRELLEELKQKLK* (not fully specified (N-terminus, C-terminus); printed as GVLDLFRELLEELKQKLK*) [Peptide 198]
67 | GVLDLFRELLNEGLEALKQKLK [Peptide 13]
58 | GVLDLFRELLNELLEALKQKLK [Peptide 18]
105 | GVLDLFRELLNELLEALKQKLKK [Peptide 2]
10 | GVLELFLNLLERLLDALQKKLK [Peptide 177]
17 | LVLDLFRELLNELLEALKQKLK [Peptide 59]
75 | NVLDLFRELLEELKQKLK* (not fully specified (N-terminus, C-terminus); printed as NVLDLFRELLEELKQKLK*) [Peptide 200]
42 | PALELFKDLLEEFRQRLK* (not fully specified (N-terminus, C-terminus); printed as PALELFKDLLEEFRQRLK*) [Peptide 213]
70 | PALELFKDLLEELRQKLR* (not fully specified (N-terminus, C-terminus); printed as PALELFKDLLEELRQKLR*) [Peptide 202]
48 | PALELFKDLLEELRQRLK* (not fully specified (N-terminus, C-terminus); printed as PALELFKDLLEELRQRLK*) [Peptide 208]
0 | PELDEFREKLNEXLEALKQKLK (PELDEFREKLNE[Aib]LEALKQKLK; not fully specified (C-terminus)) [Peptide 117]
0 | PHLDEFREKLNEXLEALKQKLK (PHLDEFREKLNE[Aib]LEALKQKLK; not fully specified (C-terminus)) [Peptide 116]
0 | PKLDEFREKLNEXLEALKQKLK (PKLDEFREKLNE[Aib]LEALKQKLK; not fully specified (C-terminus)) [Peptide 115]
74 | PLLDLFKELLEELKQKLK* (not fully specified (N-terminus, C-terminus); printed as PLLDLFKELLEELKQKLK*) [Peptide 201]
6 | PLLELFENLLEKLLDALQKKLK [Peptide 183]

ACTIVITY (%) LCAT [%] | Substance
57 | PLLELFENLLERLLDALQKKLK [Peptide 150]
54 | PLLELFKELLQELLEALKQKLK [Peptide 23]
57 | PLLELLKELLEELKQKLK* (not fully specified (N-terminus, C-terminus); printed as PLLELLKELLEELKQKLK*) [Peptide 206]
50 | PVFELFENLLERLLDALQKKLK [Peptide 152]
1 | PVLDAFRELAEALAQLKK [Peptide 225]
1 | PVLDAFRELGEALLQLKK [Peptide 226]
8 | PVLDAFRELLEALLQLKK [Peptide 222]
0 | PVLDEFREKLNEELEALWQKLK [Peptide 121]
0 | PVLDEFREKLNEELEAXKQKLK (PVLDEFREKLNEELEA[Aib]KQKLK; not fully specified (C-terminus)) [Peptide 119]
0 | PVLDEFREKLNEELEWLKQKLK [Peptide 122]
0 | PVLDEFREKLNEELEXLKQKLK (PVLDEFREKLNEELE[Aib]LKQKLK; not fully specified (C-terminus)) [Peptide 120]
7 | PVLDEFREKLNELLEALKQKLK [Peptide 84]
18 | PVLDEFREKLNEXLEALKQKL~ (PVLDEFREKLNE[Aib]LEALKQKL; not fully specified (C-terminus); printed as PVLDEFREKLNEXLEALKQKL~) [Peptide 58]
5 | PVLDEFREKLNEXLKALKQKLK (PVLDEFREKLNE[Aib]LKALKQKLK; not fully specified (C-terminus)) [Peptide 93]
6 | PVLDEFREKLNEXLWALKQKLK (PVLDEFREKLNE[Aib]LWALKQKLK; not fully specified (C-terminus)) [Peptide 89]
0 | PVLDEFREKLNEXMEALKQKLK (PVLDEFREKLNE[Aib]MEALKQKLK; not fully specified (C-terminus)) [Peptide 114]
0 | PVLDEFREKLNEXSEALKQKLK (PVLDEFREKLNE[Aib]SEALKQKLK; not fully specified (C-terminus)) [Peptide 112]
0 | PVLDEFREKLNEXXEALKQKLK (PVLDEFREKLNE[Aib][Aib]EALKQKLK; not fully specified (C-terminus)) [Peptide 110]
9 | PVLDEFREKLNKXLEALKQKLK (PVLDEFREKLNK[Aib]LEALKQKLK; not fully specified (C-terminus)) [Peptide 77]
25 | PVLDEFREKLWEXLEALKQKLK (PVLDEFREKLWE[Aib]LEALKQKLK; not fully specified (C-terminus)) [Peptide 43]
0 | PVLDEFREKLWEXWEALKQKLK (PVLDEFREKLWE[Aib]WEALKQKLK; not fully specified (C-terminus)) [Peptide 111]
14 | PVLDEFRELLKEXLEALKQKLK (PVLDEFRELLKE[Aib]LEALKQKLK; not fully specified (C-terminus)) [Peptide 68]

ACTIVITY (%) LCAT [%] | Substance
1 | PVLDEFRELLNEELEALKQKAK (PVLDEFRELLNEELEALKQKLK) [Peptide 103]
9 | PVLDEFRELLNELLEALKQKLK [Peptide 79]
5 | PVLDEFRELYNEXLEALKQKLK (PVLDEFRELYNE[Aib]LEALKQKLK; not fully specified (C-terminus)) [Peptide 92]
13 | PVLDEFRKKLNEXLEALKQKLK (PVLDEFRKKLNE[Aib]LEALKQKLK; not fully specified (C-terminus)) [Peptide 69]
16 | PVLDEFRWKLNEXLEALKQKLK (PVLDEFRWKLNE[Aib]LEALKQKLK; not fully specified (C-terminus)) [Peptide 61]
10 | PVLDEFWEKLNEXLEALKQKLK (PVLDEFWEKLNE[Aib]LEALKQKLK; not fully specified (C-terminus)) [Peptide 73]
16 | PVLDFFREKLNEXLEALKQKLK (PVLDFFREKLNE[Aib]LEALKQKLK; not fully specified (C-terminus)) [Peptide 63]
63 | PVLDFFRELLEELKQKLK* (not fully specified (N-terminus, C-terminus); printed as PVLDFFRELLEELKQKLK*) [Peptide 204]
10 | PVLDKFREKLNEXLEALKQKLK (PVLDKFREKLNE[Aib]LEALKQKLK; not fully specified (C-terminus)) [Peptide 74]
15 | PVLDLFDNLLDRLLDLLNKKLK [Peptide 173]
9 | PVLDLFERLLNELLEALQKKLK [Peptide 80]
100 | PVLDLFKELLEELKQKLK* (not fully specified (N-terminus, C-terminus); printed as PVLDLFKELLEELKQKLK*) [Peptide 192]
72 | PVLDLFKELLQELLEALKQKLK [Peptide 11]
43 | PVLDLFOELLEELOQOLK* (PVLDLF[Orn]ELLEEL[Orn]Q[Orn]LK; not fully specified (N-terminus, C-terminus); printed as PVLDLFOELLEELOQOLK*) [Peptide 212]
0 | PVLDLFREGLEELKQKLK* (not fully specified (N-terminus, C-terminus); printed as PVLDLFREGLEELKQKLK*) [Peptide 228]
57 | PVLDLFREGLNELLEALKQKLK [Peptide 20]
8 | PVLDLFREGWEELKQKLK [Peptide 224]
0 | PVLDLFREKLNEELEALKQKLK [Peptide 106]
33 | PVLDLFREKLNELLEALKQKLK [Peptide 33]
0 | PVLDLFRELGEELKQKLK* (not fully specified (N-terminus, C-terminus); printed as PVLDLFRELGEELKQKLK*) [Peptide 227]

Substance | ACTIVITY (%) LCAT [%]
PVLDEFREKLNELXEALKQKLK (PVLDEFREKLNEL[Aib]EALKQKLK) [Peptide 71] | 11
PVLDEFREKLNEXLEALEQKLK (PVLDEFREKLNE[Aib]LEALEQKLK) [Peptide 118] | 0
PVLDKFRELLNEXLEALKQKLK (PVLDKFRELLNE[Aib]LEALKQKLK) [Peptide 88] | 7
